{"source": "patent US20250312434A1", "about": "“LIPOPOLYSACCHARIDE (LPS) DEFICIENT ACINETOBACTER BAUMANNII M[…]” (VAXDYN S.L., priority 2021, published 2025)", "origin": "cited, not measured here", "molecules": {"B1": {"name": "purified OprF: purified OprF from P. aeruginosa PAO1 (protein, UniProt P13794 25-350, looked up)", "Outer membrane porin F": "QGQNSVEIEAFGKRYFTDSVRNMKNADLYGGSIGYFLTDDVELALSYGEYHDVRGTYETGNKKVHGNLTSLDAIYHFGTPGVGLRPYVSAGLAHQNITNINSDSQGRQQMTMANIGAGLKYYFTENFFAKASLDGQYGLEKRDNGHQGEWMAGLGVGFNFGGSKAAPAPEPVADVCSDSDNDGVCDNVDKCPDTPANVTVDANGCPAVAEVVRVQLDVKFDFDKSKVKENSYADIKNLADFMKQYPSTSTTVEGHTDSVGTDAYNQKLSERRANAVRDVLVNEYGVEGGRVNAVGYGESRPVADNATAEGRAINRRVEAEVEAEAK"}, "B2": {"name": "rOprF: recombinant full-length OprF from P. aeruginosa expressed in Escherichia coli (protein, UniProt P13794 1-350, looked up)", "chain": "MKLKNTLGVVIGSLVAASAMNAFAQGQNSVEIEAFGKRYFTDSVRNMKNADLYGGSIGYFLTDDVELALSYGEYHDVRGTYETGNKKVHGNLTSLDAIYHFGTPGVGLRPYVSAGLAHQNITNINSDSQGRQQMTMANIGAGLKYYFTENFFAKASLDGQYGLEKRDNGHQGEWMAGLGVGFNFGGSKAAPAPEPVADVCSDSDNDGVCDNVDKCPDTPANVTVDANGCPAVAEVVRVQLDVKFDFDKSKVKENSYADIKNLADFMKQYPSTSTTVEGHTDSVGTDAYNQKLSERRANAVRDVLVNEYGVEGGRVNAVGYGESRPVADNATAEGRAINRRVEAEVEAEAK", "modifications": "full-length", "notes": "recombinant full-length OprF from P. aeruginosa expressed in Escherichia coli"}}, "key": {"P. aeruginosa [1]": {"tested_on": "P. aeruginosa", "conditions": "4 intraperitoneal doses of 50 μg"}, "P. aeruginosa [2]": {"tested_on": "P. aeruginosa", "conditions": "2 intraperitoneal doses of 10 ug"}, "[3]": {"tested_on": "P. aeruginosa strain PAO1", "conditions": "Balb/c female mice, 4 subcutaneous doses of 50ug; intranasal PAO1"}, "P. aeruginosa strain PAK": {"tested_on": "P. aeruginosa strain PAK", "conditions": "Balb/c female mice, 4 subcutaneous doses of 50ug; intranasal PAK"}}, "data": [{"molecule": "purified OprI: P. aeruginosa outer membrane lipoprotein OprI, purified", "values": [{"measurement": "LD50 in immunized versus not immunized animals", "setting": "P. aeruginosa [1]", "result": "up to 35 fold"}]}, {"molecule": "B1", "values": [{"measurement": "protection", "setting": "P. aeruginosa [2]", "result": "up to 67%"}]}, {"molecule": "B2", "values": [{"measurement": "survival at 7 days", "setting": "[3]", "result": 50, "unit": "%"}, {"measurement": "survival at 7 days", "setting": "P. aeruginosa strain PAK", "result": 60, "unit": "%"}]}]}
